From patent US4711951A, “Therapeutically active compound and pharmaceutical composition containing the same” (priority 1981, dated 1987)

Legend:
[1] = tested on: white mice (male mice of type NMRI); experiment: Blood sugar level in mice after intravenous injection (anthrone method); format: in vivo; settings: i.v.; for blood sugar level reduced to % of the normal value: in 30 minutes
Method: Test animals were white mice (male mice of type NMRI) having a body weight of 25±2 g. The solutions below were administrated intravenously in the tails of the mice. There were three groups of mice, in which there were three mice each. The solutions contained:
Group A: 0.5 ml 0.9% (w/v) NaCl
Group B: 0.5 ml 0.9% (w/v) NaCl and 5 ug native insulin
Group C: 0.5 ml 0.9% (w/v) NaCl 50 ug insulin-2-pyridyl disulfide derivative synthesized as above.
Blood samples were collected in micro capillary tubes from the corners of the eyes of the mice. The samples were collected 10 minutes before injection and 30, 120, 240 minutes, 7, 15 and 24 hours on injection. The anthrone method was used to determine the carbohydrate content of the samples (Burt J R; Anal Biochem, 9 (1964) p 293-302).

[2] = Half-life of circulating catalase activity in burnt rats (Clark electrode); format: in vivo, rats (Sprague Dawley); settings: i.v., 20,000 IU, hind paws burnt 5 minutes after injection, catalase activity in blood
Method: (§1) Test animals were white rats (Sprague Dawley) of a body weight of 300-350 g. Two groups of rats (6 individuals each) were separately injected intravenously with 0.5 ml 0.9% (w/v) NaCl containing 20,000 international units (IU) native catalase respectively an amount of catalase-2-dipyridyl disulfide derivative (synthesized as above) corresponding to 20,000 (IU) native catalase. 5 minutes after injection hind paws of all the rats were burnt by dipping into circulating water of +55° C. for 20 seconds. 0.4 ml blood was collected from the left arteriae carotis at the time intervals 2, 15, 30, 60, 120 and 180 minutes. The catalase activity in each blood sample was determined as the amount of oxygen formed per time unit. Measurements were carried out with a Clark electrode by standard procedures.

[3] = tested on: white rats (Sprague Dawley), burnt hind paws; experiment: Oedema of the burn, measured as the volume of the paw; format: in vivo; settings: i.v., amount corresponding to 20,000 IU, in 2 hours
Method: as §1
The oedema of the burn was measured as the volume of the paw. This volume was measured as corresponding deplacement at even time cuts during 3 hours.

[4] = Determination of half-life for circulation in rabbit (superoxide dismutase activity of blood samples); format: in vivo; settings: i.v., 1 ml of 10 mg/ml
Method: Test animals were white rabbits having a body weight of 2-5 kg. 1 ml native superoxide dismutase (yeast superoxide dismutase, Carlsberg Laboratories, Copenhagen, Denmark) (10 mg/ml) or 1 ml superoxide dismutase-2-pyridyl disulfide derivative (10 mg/ml) was injected intravenously into the rabbits. Both of the solutions were prepared from 0.9% (w/v) NaCl. Blood samples were collected from the ear lobes of the rabbits at the time intervals 5, 10, 20, 30, 60, 90, 120, 150, 180 and 210 minutes. The superoxide dismutase activity of the samples was determined according to Crapo J D, McCord J M and Fridovich I; Methods of Enzymology 53 (1978) p 382-393.

insulin-2-pyridyl disulfide derivative: insulin reacted with N-succinimidyl-3-(2-pyridyldithio)-propionate (SPDP)
time until blood sugar level returned to normal values ([1]; 50 ug derivative (group C)): > 24 h | blood sugar level reduced to % of the normal value ([1]; 50 ug derivative (group C)): 40 % of the normal value

native insulin: native insulin, underivatized base compound used as comparison
time until blood sugar level reached the normal value (value before injection) ([1]; 5 ug native insulin (group B)): 7 h | blood sugar level reduced to % of the normal value ([1]; 5 ug native insulin (group B)): 40 % of the normal value

B1: native catalase: catalase of bovine liver (Sigma C-100), further purified by gel filtration (protein, UniProt P00432 2-527, looked up)
Catalase: ADNRDPASDQMKHWKEQRAAQKPDVLTTGGGNPVGDKLNSLTVGPRGPLLVQDVVFTDEMAHFDRERIPERVVHAKGAGAFGYFEVTHDITRYSKAKVFEHIGKRTPIAVRFSTVAGESGSADTVRDPRGFAVKFYTEDGNWDLVGNNTPIFFIRDALLFPSFIHSQKRNPQTHLKDPDMVWDFWSLRPESLHQVSFLFSDRGIPDGHRHMNGYGSHTFKLVNANGEAVYCKFHYKTDQGIKNLSVEDAARLAHEDPDYGLRDLFNAIATGNYPSWTLYIQVMTFSEAEIFPFNPFDLTKVWPHGDYPLIPVGKLVLNRNPVNYFAEVEQLAFDPSNMPPGIEPSPDKMLQGRLFAYPDTHRHRLGPNYLQIPVNCPYRARVANYQRDGPMCMMDNQGGAPNYYPNSFSAPEHQPSALEHRTHFSGDVQRFNSANDDNVTQVRTFYLKVLNEEQRKRLCENIAGHLKDAQLFIQKKAVKNFSDVHPEYGSRIQALLDKYNEEKPKNAVHTYVQHGSHLSAREKANL
half-life for circulating catalase [2]: 9 min

B2: catalase-2-pyridyl disulfide: purified catalase of bovine liver reacted with SPDP (protein, UniProt P00432 2-527, looked up)
Catalase: B1 Catalase
modifications: SPDP 2-pyridyl disulfide derivative
notes: purified catalase of bovine liver reacted with SPDP
half-life for circulating catalase [2]: 34 min | swelling of the burnt paws compared to native catalase [3]: significantly decreased swelling

B3: native superoxide dismutase: yeast superoxide dismutase, Carlsberg Laboratories, Copenhagen, Denmark (protein, UniProt P00445 2-154, looked up)
Superoxide dismutase [Cu-Zn]: VQAVAVLKGDAGVSGVVKFEQASESEPTTVSYEIAGNSPNAERGFHIHEFGDATNGCVSAGPHFNPFKKTHGAPTDEVRHVGDMGNVKTDENGVAKGSFKDSLIKLIGPTSVVGRSVVIHAGQDDLGKGDTEESLKTGNAGPRPACGVIGLTN
half-life for circulation [4]: about 10 minutes

B4: superoxide dismutase-2-pyridyl disulfide derivative: superoxide dismutase from yeast reacted with SPDP (protein, UniProt P00445 2-154, looked up)
Superoxide dismutase [Cu-Zn]: B3 Superoxide dismutase [Cu-Zn]
modifications: SPDP 2-pyridyl disulfide derivative
notes: superoxide dismutase from yeast reacted with SPDP
half-life for circulation [4]: 60 min
